These results are taken from article PMC12202928, “Bidirectional interdomain crosstalk in a Porphyromonas gingivalis chimeric enzyme coordinates catalytic synergy for aromatic amino acid biosynthesis” (Frontiers in Microbiology, 2025).

The data set deals with the molecule itself. The data set can be described thus: SEC; analytical SEC on ENrich SEC 650 calibrated with mass standards; 50 mM BTP pH 7.4, 4°C, protein loaded at 1 mg/mL, 0.2 mL/min; apparent mass compared with theoretical monomer mass. (Size exclusion chromatography separates by hydrodynamic size, large species first.)

B1: PgiCM (separated CM domain of PgiDAH7PS-CM) (domain or fragment, Porphyromonas gingivalis, UniProt B2RJM7 259-366, looked up)
chain: IPRRQSEKQDEELISWRMQIDQIDESIVELLARRMQVAYEIGLFKKEHNLAVVQNLRYEQLQRNRARTAALLGLDETFISELFSRIHEESVRLQTLAPQKPHTDDCIS
notes: C-terminal part of PgiDAH7PS-CM, Porphyromonas gingivalis, UniProt B2RJM7, split between R258 and I259; theoretical monomer MW 13 kDa; source: E. coli BL21 (DE3), purified (HisTrap HP, TEV digestion, second HisTrap); not shown: His6, N-terminal, cleaved
For B1, the stoichiometry N (as a rule, the number of molecules, sites or subunits per partner or assembly) was found to be 2.

B2: PgiDAH7PS-CM (bifunctional 3-deoxy-D-arabino heptulosonate-7-phosphate synthase / chorismate mutase from Porphyromonas gingivalis) (enzyme, UniProt B2RJM7 1-366, looked up)
chain: MKYCDFTPLPLPSEPNTTVIAGPCSAESEEQIMTTARALRDEAGIRIFRAGLWKPRTLPGCFEGVGETGLPWLVRVQDELDMLATTEVATREHVEQAMQAGIRILWLGARTTSNPFAVQEIADTIGKDESVIVLVKNPISPDLDLWTGALERLRQSGVRQIGAIHRGFSTYATKTFRNPPHWQIPFDLKRRFPSLTILCDPSHITGQRDRIESVSQQAMEMNFDGLIIESHCCPDKALSDASQQITPTVLAQILRRLRIPRRQSEKQDEELISWRMQIDQIDESIVELLARRMQVAYEIGLFKKEHNLAVVQNLRYEQLQRNRARTAALLGLDETFISELFSRIHEESVRLQTLAPQKPHTDDCIS
notes: PgiDAH7PS-CM, Porphyromonas gingivalis, UniProt B2RJM7, 366 amino acid residues; DAH7PS domain 17-253, 11-residue linker, CM domain 265-356; codon-optimised synthetic gene in pET28a; Homodimer by analytical SEC (68 ± 6 kDa against a theoretical monomer of 42 kDa); also called full-length PgiDAH7PS-CM; PgiDAH7PS^WT; source: E. coli BL21 (DE3), purified (HisTrap HP, TEV digestion, second HisTrap); …
As to B2, the “stoichiometry N” value worked out at 2.
